Data taken from article PMC4019675.

Biological target: FtsZ-Alexa488 (Cys-FtsZ labeled with Alexa488-maleimide)
Experiment: TIRF microscopy, single particle tracking

## FtsZ-Cy5 (Cys-FtsZ labeled with Cy5-maleimide) (natural protein)
  average lifetime of FtsZ monomers in the filament network: 7.16 s
